The record followed here is patent US11873336 (TENEOBIO, dated 2024).

The target of test [1] is T1, human CD22 on CD22-positive Burkitt's lymphoma cells (Daudi, Raji, Ramos) (human, UniProt P20273 20-847).
T1 construct: whole, on cells; also called CD22+ cells; CD22 positive cells
T1 sequence (looked up): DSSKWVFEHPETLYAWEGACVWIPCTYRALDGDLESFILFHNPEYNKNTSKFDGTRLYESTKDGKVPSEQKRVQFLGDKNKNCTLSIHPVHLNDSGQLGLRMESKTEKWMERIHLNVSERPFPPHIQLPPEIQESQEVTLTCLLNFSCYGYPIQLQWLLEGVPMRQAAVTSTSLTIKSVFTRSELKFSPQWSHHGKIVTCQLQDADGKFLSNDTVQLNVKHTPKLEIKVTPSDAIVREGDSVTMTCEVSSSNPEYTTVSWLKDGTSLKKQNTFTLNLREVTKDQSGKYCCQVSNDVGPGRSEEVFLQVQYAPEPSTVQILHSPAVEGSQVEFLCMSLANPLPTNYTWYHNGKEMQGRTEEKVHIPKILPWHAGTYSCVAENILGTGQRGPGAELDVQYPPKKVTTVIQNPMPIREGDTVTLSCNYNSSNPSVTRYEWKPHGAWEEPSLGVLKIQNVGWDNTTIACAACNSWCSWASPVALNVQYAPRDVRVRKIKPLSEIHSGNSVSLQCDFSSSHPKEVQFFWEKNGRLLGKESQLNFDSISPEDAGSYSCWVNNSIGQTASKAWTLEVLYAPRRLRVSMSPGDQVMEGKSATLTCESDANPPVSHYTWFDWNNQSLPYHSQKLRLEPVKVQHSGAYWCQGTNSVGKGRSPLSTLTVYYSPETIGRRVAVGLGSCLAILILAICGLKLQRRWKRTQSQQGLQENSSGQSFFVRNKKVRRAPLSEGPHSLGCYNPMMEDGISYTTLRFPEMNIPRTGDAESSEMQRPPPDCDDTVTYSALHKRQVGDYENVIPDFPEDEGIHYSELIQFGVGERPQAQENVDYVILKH
Nature of the test: cell binding, Daudi cells. The method, then:
Binding to CD22 positive cells was assessed by flow cytometry (Guava easyCyte 8HT, EMD Millipore) using the Daudi cell line (ATCC). Briefly, 100,000 target cells were stained with a dilution series of purified UniAbs™ for 30 minutes at 4° C. Following incubation, the cells were washed twice with flow cytometry buffer (1×PBS, 1% BSA, 0.1% NaN_3) and stained with goat F(ab')2 anti-human IgG conjugated to R-phycoerythrin (PE) (Southern Biotech, cat. #2042-09) to detect cell-bound antibodies. After a 20-minute incubation at 4° C., the cells were washed twice with flow cytometry buffer and then mean fluorescence intensity (MFI) was measured by flow cytometry. EC50 values were calculated using GraphPad Prism 7. Binding to *cynomolgus* CD22 positive cells was determined using the same protocol with the following modifications: the target cells were from CHO cells stably transfected to express the extracellular domain of *cynomolgus* CD22 and each antibody was tested at a single concentration (~1.7 µg/mL) so EC50 values were not calculated.

The target in test [2] is T2, human CD22 protein (recombinant CD22 extracellular domain) (human, UniProt P20273 20-687).
T2 construct: extracellular domain; also called SIGLEC-2
T2 sequence (looked up): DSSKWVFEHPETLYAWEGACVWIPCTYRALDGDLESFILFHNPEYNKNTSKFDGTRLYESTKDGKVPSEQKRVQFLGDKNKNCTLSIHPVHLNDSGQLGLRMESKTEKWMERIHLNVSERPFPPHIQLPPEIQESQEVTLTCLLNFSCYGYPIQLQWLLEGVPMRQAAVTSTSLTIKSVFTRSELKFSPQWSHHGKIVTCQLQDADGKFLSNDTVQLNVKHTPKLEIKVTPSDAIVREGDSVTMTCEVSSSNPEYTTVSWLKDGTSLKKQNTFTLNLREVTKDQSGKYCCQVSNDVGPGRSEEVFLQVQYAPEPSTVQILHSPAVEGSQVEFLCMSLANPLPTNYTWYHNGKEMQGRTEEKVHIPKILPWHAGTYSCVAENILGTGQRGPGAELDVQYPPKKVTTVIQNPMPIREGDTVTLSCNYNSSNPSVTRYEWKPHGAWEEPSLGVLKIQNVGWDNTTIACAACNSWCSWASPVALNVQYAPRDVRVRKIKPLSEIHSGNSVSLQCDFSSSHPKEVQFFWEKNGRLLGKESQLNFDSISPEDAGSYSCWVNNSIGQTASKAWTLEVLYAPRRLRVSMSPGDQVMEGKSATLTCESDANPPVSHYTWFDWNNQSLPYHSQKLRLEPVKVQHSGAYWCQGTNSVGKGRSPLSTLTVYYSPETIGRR
Nature of the test: ELISA on recombinant CD22 extracellular domain and/or cell binding.

B1: anti-CD22 heavy chain-only antibody with the VH of SEQ ID NO: 39 (antibody, V domains shown)
VH: QLQLQESGPGLVKPSETLSLTCTVSGDSISSGDYYWGWIRQPPGKGLEWIGHIYYSGATYYNPSLKNRVTISVDTSKNQFSLKLSSVTAADTAVYYCTREDSSNWRSRGQGTLVTVSS
notes: Heavy chain-only antibody (UniAb), human IgG
B1: the binding result in test [1] and in test [2] was “binds” in each case.

B2: anti-CD22 heavy chain-only antibody with the VH of SEQ ID NO: 36 (antibody, V domains shown)
VH: QLQLQESGPGLVKPSETLSLTCTVSGDSISSGDYYWGWIRQPPGKGLEWIGHIYYSGATYYNPSLKNRVTISVDTSRNQFSLKLSSVTAADTAVYYCTREDSSSWRSRGQGTLVTVSS
notes: as for B1
B2: the binding result in test [1] and in test [2] was “binds” in each case.

B3: anti-CD22 heavy chain-only antibody with the VH of SEQ ID NO: 38 (antibody, V domains shown)
VH: QLQLQESGPGLVKPSETLSLTCTVSGDSISSGDYYWGWIRQPPGKGLEWIGHIYYSGATYYNPSLKNRVTISVDTSRNQFSLNLSSVTAADTAVYYCTREDSSNWRSRGQGTLVTVSS
notes: as for B1
With B3, the binding result in test [1] and in test [2] was “binds” in each case.

B4: anti-CD22 heavy chain-only antibody with the VH of SEQ ID NO: 31 (antibody, V domains shown)
VH: QLQLQESGPGLVKPSETLSLTCTVSGDSISSGGYYWGWIRQPPGKGLEWIGHIYYSGATYYNPSLKNRVTISVDTSKNQFSLKLSSVTAADTAVYYCTRDDSSNWRSRGQGTLVTVSS
notes: as for B1
With B4, the binding result in test [1] and in test [2] was “binds” each time.

B5: anti-CD22 heavy chain-only antibody with the VH of SEQ ID NO: 32 (antibody, V domains shown)
VH: QLQLQESGPGLVKPSETLSLTCTVSGDSISSGDYYWGWIRQPPGKGLEWIGHIYYSGATYYNPSLKNRVTISVDTSRNQFSLNLSSVTAADTAVYYCTREDSSSWRSRGQGTLVTVSS
notes: as for B1
Take B5: the binding result in test [1] and in test [2] was “binds” throughout.

B6: anti-CD22 heavy chain-only antibody with the VH of SEQ ID NO: 35 (antibody, V domains shown)
VH: QLQLQESGPGLVKPSETLSLTCTVSGDSISSGDYYWGWIRQPPGKGLEWIGHIYYSGATYYNPSLENRVTISVDTSKNQFSLKLSSVTAADTAVYYCTREDSSSWRSRGQGTLVTVSS
notes: as for B1
As for B6, the binding result in test [1] and in test [2] was “binds” throughout.

B7: anti-CD22 heavy chain-only antibody with the VH of SEQ ID NO: 42 (antibody, V domains shown)
VH: QLQLQESGPGLVKPSETLSLTCTVSGDSISSGDYYWGWIRQPPGKGLEWIGSIYYSGATYYNPSLKNRVTISVDTSKNQFSLKLSSVTAADTAVYYCTRDDSSNWRSRGQGTLVTVSS
notes: as for B1
As to B7, the binding result in test [1] and in test [2] was “binds” throughout.

B8: anti-CD22 heavy chain-only antibody with the VH of SEQ ID NO: 28 (antibody, V domains shown)
VH: QLQLQESGPGLVKPSETLSLTCTVSGDSISSGDYYWGWIRQPPGKGLEWIGHIYYSGATYYNPSLKNRVTISVDTSRNQFSLNLSSVTAADTAVYYCTRDDSSNWRSRGQGTLVTVSS
notes: as for B1
B8: the binding result in test [1] and in test [2] was “binds” in each case.

B9: anti-CD22 heavy chain-only antibody with the VH of SEQ ID NO: 40 (antibody, V domains shown)
VH: QLQLQESGPGLVKPSETLSLTCTVSGDSISSGDYYWGWIRQPPGKGLEWIGHIYYSGATYYNPSLKNRVTISVDTSKNQFSLKLSSVTAADTAVYYCTREDSSSWRSRGQGTLVTVSS
notes: as for B1
On to B9, for which the binding result in test [1] and in test [2] was “binds” each time.

B10: anti-CD22 heavy chain-only antibody with the VH of SEQ ID NO: 30 (antibody, V domains shown)
VH: QLQLQESGPGLVKPSETLSLTCTVSGDSISSGDYYWGWIRQPPGKGLEWIGHIYYSGATYYNPSLKNRVTISVDTSKNQFSLKLSSVTAADTAVYYCTRDDSSNWRSRGQGTLVTVSS
notes: as for B1
Regarding B10, the binding result in test [1] and in test [2] was “binds” in each case.

B11: anti-CD22 heavy chain-only antibody with the VH of SEQ ID NO: 29 (antibody, V domains shown)
VH: QLQLQESGPGLVKPSETLSLTCTVSGDSISSGDYYWGWIRQPPGKGLEWIGHIYYSGATYYNPSLKNRVTISVDTSRNQFSLKLSSVTAADTAVYYCTRDDSSNWRSRGQGTLVTVSS
notes: as for B1
In the case of B11, the binding result in test [1] and in test [2] was “binds” each time.

B12: anti-CD22 heavy chain-only antibody with the VH of SEQ ID NO: 37 (antibody, V domains shown)
VH: QLQLQESGPGLVKPSETLSLTCTVSGDSISSGDYYWGWIRQPPGKGLEWIGHIYYSGVTYYNPSLKNRVTISVDTSKNQFSLKLSSVTAADTAVYYCTREDSSNWRSRGQGTLVTVSS
notes: as for B1
Turning to B12, the binding result in test [1] and in test [2] was “binds” throughout.

B13: anti-CD22 heavy chain-only antibody with the VH of SEQ ID NO: 34 (antibody, V domains shown)
VH: QLQLQESGPGLVKPSETLSLTCTVSGDSISSGDYYWGWIRQPPGKGLEWIGHIYYSGVTYYNPSLKNRVTISVDTSRNQFSLKLSSVTAADTAVYYCTREDSSNWRSRGQGTLVTVSS
notes: as for B1
For the molecule B13, the binding result in test [1] and in test [2] was “binds” throughout.

B14: anti-CD22 heavy chain-only antibody with the VH of SEQ ID NO: 26 (antibody, V domains shown)
VH: QLQLQESGPGLVKPSETLSLTCTVSGDSISSGDYYWGWIRQPPGKGLEWIGHIYYSGVTYYNPSLKNRVTISVDTSKNQFSLKLSSVTAADTAVYYCTREDSSSWRSRGQGTLVTVSS
notes: as for B1
With B14, the binding result in test [1] and in test [2] was “binds” each time.

B15: anti-CD22 heavy chain-only antibody with the VH of SEQ ID NO: 25 (antibody, V domains shown)
VH: QLQLQESGPGLVKPSETLSLTCTVSGDSISSGDYYWGWIRQPPGKGLEWIGHIYYSGATYYNPSLENRVTISVDTSKNQFSLKLSSVTAADTAVYYCTRDDSSNWRSRGQGTLVTVSS
notes: as for B1
Take B15: the binding result in test [1] and in test [2] was “binds” throughout.

B16: anti-CD22 heavy chain-only antibody with the VH of SEQ ID NO: 41 (antibody, V domains shown)
VH: QLQLQESGPGLVKPSETLSLTCTVSGDSISSGDYYWGWIRQPPGKGLEWIGHIYYSGATYYNPSLKNRVTISVDTSRNQFSLKLSSVTAADTAVYYCTREDSSNWRSRGQGTLVTVSS
notes: as for B1
On to B16, for which the binding result in test [1] and in test [2] was “binds” throughout.

B17: anti-CD22 heavy chain-only antibody with the VH of SEQ ID NO: 27 (antibody, V domains shown)
VH: QLQLQESGPGLVKPSETLSLTCTVSGDSISSGDYYWGWIRQPPGKGLEWIGHIYYSGVTYYNPSLKNRVTISVDTSRNQFSLNLSSVTAADTAVYYCTREDSSSWRSRGQGTLVTVSS
notes: as for B1
With B17, the binding result in test [1] and in test [2] was “binds” throughout.

B18: anti-CD22 heavy chain-only antibody with the VH of SEQ ID NO: 24 (antibody, V domains shown)
VH: QLQLQESGPGLVKPSETLSLTCTVSGDSISSGDYYWGWIRQPPGKGLEWIGHIYYSGVTYYNPSLKSRVTISVDTSRNQFSLKLSSVTAADTAVYYCTREDSSNWRSRGQGTLVTVSS
notes: as for B1
For B18, the binding result in test [1] and in test [2] was “binds” each time.

B19: anti-CD22 heavy chain-only antibody with the VH of SEQ ID NO: 33 (antibody, V domains shown)
VH: QLQLQESGPGLVKPSETLSLTCTVSGDSISSGDYYWGWIRQPPGKGLEWIGHIYYSGVTYYNPSLKNRVTISVDTSKNQFSLKLSSVTAADTAVYYCTRDDSSNWRSRGQGTLVTVSS
notes: as for B1
As for B19, the binding result in test [1] and in test [2] was “binds” in each case.
